Test results from PMC9482650, “Quantitative fragmentomics allow affinity mapping of interactomes” (Nature Communications, 2022).
Residue numbers refer to the chain shown, from its start.

Experiments:
Assay in all cases: holdup assay
Parameters in all cases: key: below the threshold = too weak to quantify, mostly under pKd 3.1 to 4
[1] = target: AHNAK1, Q09666
[2] = target: T1, LIN7C, Q9NUP9
T1 sequence (Q9NUP9 88-185, limits assumed, looked up): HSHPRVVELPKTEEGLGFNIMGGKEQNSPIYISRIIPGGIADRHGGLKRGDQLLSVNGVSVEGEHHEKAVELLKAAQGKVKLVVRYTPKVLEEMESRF

[3] = target: PDLIM1, O00151
[4] = target: DLG4_3, P78352
[5] = target: IL16_1, Q14005
[6] = target: DLG2_2, Q15700
[7] = target: T2, PDZD7_3, Q9H5P4
T2 sequence (Q9H5P4 857-944, limits assumed, looked up): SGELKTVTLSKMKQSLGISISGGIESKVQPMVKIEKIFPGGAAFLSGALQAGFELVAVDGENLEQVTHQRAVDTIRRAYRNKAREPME

[8] = target: HTRA1, Q92743
[9] = target: GRIP2_7, Q9C0E4
[10] = target: T3, NHERF3_3, Q5T2W1
T3 sequence (Q5T2W1 238-333, limits assumed, looked up): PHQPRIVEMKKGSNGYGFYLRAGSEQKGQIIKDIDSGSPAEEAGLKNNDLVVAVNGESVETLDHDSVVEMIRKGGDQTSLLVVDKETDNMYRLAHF

[11] = target: T4, MPDZ_5, O75970
T4 sequence (O75970 695-796, limits assumed, looked up): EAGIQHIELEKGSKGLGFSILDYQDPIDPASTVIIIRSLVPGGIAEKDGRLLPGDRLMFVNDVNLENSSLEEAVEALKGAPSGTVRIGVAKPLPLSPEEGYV

[12] = target: DLG4_2, P78352
[13] = target: T5, GRIP1_4, Q9Y3R0
T5 sequence (Q9Y3R0 467-571, limits assumed, looked up): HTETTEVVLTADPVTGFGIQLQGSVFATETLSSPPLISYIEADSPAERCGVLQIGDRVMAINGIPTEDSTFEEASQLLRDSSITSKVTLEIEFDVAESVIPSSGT

[14] = target: LDB3, O75112
[15] = target: Inadl_10, Q8NI35
[16] = target: T6, APBA2_2, Q99767
T6 sequence (Q99767 654-744, limits assumed, looked up): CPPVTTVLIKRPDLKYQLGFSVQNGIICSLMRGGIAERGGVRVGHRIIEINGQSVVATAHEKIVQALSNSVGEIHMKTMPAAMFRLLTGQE

[17] = target: MAGI2_3, Q86UL8
[18] = target: MAGI2_4, Q86UL8
[19] = target: Inadl_5, Q8NI35
[20] = target: LNX1_3, Q8TBB1
[21] = target: PDZRN4_1, Q6ZMN7
[22] = target: LAP2, Q96RT1
[23] = target: FRMPD3, Q5JV73
[24] = target: T7, LIN7B, Q9HAP6
T7 sequence (Q9HAP6 88-185, limits assumed, looked up): T1 sequence (Q9NUP9 88-185, limits assumed, looked up) with S2A, E13D, I35V, I40V, H65Q, K79S, K89R, S96A

[25] = target: IL16_4, Q14005
[26] = target: DLG1_1, Q12959
[27] = target: T8, APBA3_1, O96018
T8 sequence (O96018 389-490, limits assumed, looked up): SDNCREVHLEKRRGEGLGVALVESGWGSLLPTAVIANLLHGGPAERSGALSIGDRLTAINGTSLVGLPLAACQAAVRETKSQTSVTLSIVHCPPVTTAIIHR

[28] = target: T9, HTRA3, P83110
T9 sequence (P83110 354-453, limits assumed, looked up): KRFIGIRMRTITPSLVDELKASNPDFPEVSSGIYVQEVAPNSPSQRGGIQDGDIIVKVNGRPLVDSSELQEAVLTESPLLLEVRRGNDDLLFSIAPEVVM

[29] = target: ARHGEF12, Q9NZN5-2
[30] = plain residues with an end cap or a label only (N-terminal biotin on a linker: ado-ado)
[31] = modified: phospho on T at position -1 from the C-terminal residue

Sequence of MAGI2_3, Q86UL8 (Q86UL8 600-682): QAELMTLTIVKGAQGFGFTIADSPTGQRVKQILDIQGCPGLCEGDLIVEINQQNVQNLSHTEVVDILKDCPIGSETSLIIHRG
Sequence of IL16_4, Q14005 (Q14005 1229-1329): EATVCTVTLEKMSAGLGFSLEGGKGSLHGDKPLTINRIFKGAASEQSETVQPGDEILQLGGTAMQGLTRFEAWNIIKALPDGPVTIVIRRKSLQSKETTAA
Sequence of MAGI2_4, Q86UL8 (Q86UL8 772-865): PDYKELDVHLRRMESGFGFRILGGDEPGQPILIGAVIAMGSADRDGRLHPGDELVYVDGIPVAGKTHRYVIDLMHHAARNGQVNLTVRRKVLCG
Sequence of AHNAK1, Q09666 (Q09666 4-100): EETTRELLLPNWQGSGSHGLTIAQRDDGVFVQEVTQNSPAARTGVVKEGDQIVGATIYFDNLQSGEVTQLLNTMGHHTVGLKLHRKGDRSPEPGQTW
Sequence of HTRA1, Q92743 (Q92743 360-477): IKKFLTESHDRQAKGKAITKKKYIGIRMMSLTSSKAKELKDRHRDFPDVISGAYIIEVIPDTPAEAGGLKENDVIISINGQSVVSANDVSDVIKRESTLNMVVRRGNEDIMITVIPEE
Sequence of LDB3, O75112 (O75112 1-94): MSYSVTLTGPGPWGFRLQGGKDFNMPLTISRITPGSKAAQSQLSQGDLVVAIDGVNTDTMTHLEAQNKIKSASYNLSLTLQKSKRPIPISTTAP
Sequence of LNX1_3, Q8TBB1 (Q8TBB1 500-596): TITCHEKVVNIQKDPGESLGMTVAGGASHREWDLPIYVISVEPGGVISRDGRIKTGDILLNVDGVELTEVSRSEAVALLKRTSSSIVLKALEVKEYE
Sequence of ARHGEF12, Q9NZN5-2 (Q9NZN5 other isoform, or with tags, fused parts or gaps): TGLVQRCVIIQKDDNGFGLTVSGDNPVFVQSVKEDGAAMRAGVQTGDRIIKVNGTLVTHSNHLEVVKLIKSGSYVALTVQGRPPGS
Sequence of PDLIM1, O00151 (O00151 1-87): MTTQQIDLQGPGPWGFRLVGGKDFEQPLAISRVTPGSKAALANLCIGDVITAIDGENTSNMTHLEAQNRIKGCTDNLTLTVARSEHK
Sequence of GRIP2_7, Q9C0E4 (Q9C0E4 934-1023): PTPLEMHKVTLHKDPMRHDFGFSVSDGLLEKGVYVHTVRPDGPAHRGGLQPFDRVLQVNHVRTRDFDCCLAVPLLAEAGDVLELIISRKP
Sequence of IL16_1, Q14005 (Q14005 210-306): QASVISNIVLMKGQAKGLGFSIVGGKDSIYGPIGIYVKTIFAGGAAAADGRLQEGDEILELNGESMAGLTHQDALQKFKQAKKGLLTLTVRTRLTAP
Sequence of DLG4_2, P78352 (P78352 155-259): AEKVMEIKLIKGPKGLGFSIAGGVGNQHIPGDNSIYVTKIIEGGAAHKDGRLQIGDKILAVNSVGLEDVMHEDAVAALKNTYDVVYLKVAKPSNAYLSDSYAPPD
Sequence of DLG4_3, P78352 (P78352 306-403): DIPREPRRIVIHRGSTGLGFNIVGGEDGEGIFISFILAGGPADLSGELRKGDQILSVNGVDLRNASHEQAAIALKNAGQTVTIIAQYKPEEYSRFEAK
Sequence of Inadl_10, Q8NI35 (Q8NI35 1673-1763): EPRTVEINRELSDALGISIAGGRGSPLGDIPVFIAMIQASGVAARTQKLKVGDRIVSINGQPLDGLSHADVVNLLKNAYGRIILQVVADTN
Sequence of Inadl_5, Q8NI35 (Q8NI35 673-780): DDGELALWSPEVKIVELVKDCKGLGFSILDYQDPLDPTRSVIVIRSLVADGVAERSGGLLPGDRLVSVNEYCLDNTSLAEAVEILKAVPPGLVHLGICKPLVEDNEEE
Sequence of LAP2, Q96RT1 (Q96RT1 other isoform, or with tags, fused parts or gaps): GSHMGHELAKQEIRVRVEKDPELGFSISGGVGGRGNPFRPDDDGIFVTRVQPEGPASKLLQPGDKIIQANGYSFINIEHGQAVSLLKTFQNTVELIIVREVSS
Sequence of PDZRN4_1, Q6ZMN7 (Q6ZMN7 213-318): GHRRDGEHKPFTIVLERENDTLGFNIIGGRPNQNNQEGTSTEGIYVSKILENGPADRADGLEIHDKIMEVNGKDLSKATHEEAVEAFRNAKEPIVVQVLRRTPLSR
Sequence of DLG2_2, Q15700 (Q15700 189-283): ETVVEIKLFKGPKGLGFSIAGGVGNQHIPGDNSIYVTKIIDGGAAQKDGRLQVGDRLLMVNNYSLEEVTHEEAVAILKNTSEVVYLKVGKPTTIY
Sequence of FRMPD3, Q5JV73 (Q5JV73 12-100): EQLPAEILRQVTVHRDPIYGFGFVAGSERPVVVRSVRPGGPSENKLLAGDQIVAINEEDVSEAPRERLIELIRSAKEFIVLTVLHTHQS

B1: AKIP1, Q9NQ31 (peptide)
chain: GQSVDLVFPV
- pKd [1, 30]: below the threshold
- pKd [2, 30]: below the threshold
- pKd [3, 30]: below the threshold
- pKd [4, 30]: below the threshold
- pKd [5, 30]: below the threshold
- pKd [6, 30]: below the threshold
- pKd [7, 30]: below the threshold
- pKd [8, 30]: 4.15
- pKd [9, 30]: 4.08
- pKd [10, 30]: below the threshold
- pKd [11, 30]: below the threshold
- pKd [12, 30]: below the threshold
- pKd [13, 30]: below the threshold
- pKd [14, 30]: below the threshold
- pKd [15, 30]: below the threshold
- pKd [16, 30]: below the threshold
- pKd [17, 30]: below the threshold
- pKd [18, 30]: below the threshold
- pKd [19, 30]: below the threshold
- pKd [20, 30]: 3.96
- pKd [21, 30]: below the threshold
- pKd [22, 30]: below the threshold
- pKd [23, 30]: 3.68
- pKd [24, 30]: below the threshold
- pKd [25, 30]: below the threshold
- pKd [26, 30]: below the threshold
- pKd [27, 30]: below the threshold
- pKd [28, 30]: below the threshold
- pKd [29, 30]: below the threshold

B2: SH2D3C, Q8N5H7 (peptide)
chain: LEPAVRSSEL
- pKd [1, 30]: below the threshold
- pKd [2, 30]: below the threshold
- pKd [3, 30]: 3.5
- pKd [4, 30]: below the threshold
- pKd [5, 30]: below the threshold
- pKd [6, 30]: below the threshold
- pKd [7, 30]: 4.71
- pKd [8, 30]: below the threshold
- pKd [9, 30]: below the threshold
- pKd [10, 30]: below the threshold
- pKd [11, 30]: below the threshold
- pKd [12, 30]: below the threshold
- pKd [13, 30]: below the threshold
- pKd [14, 30]: below the threshold
- pKd [15, 30]: below the threshold
- pKd [16, 30]: below the threshold
- pKd [17, 30]: below the threshold
- pKd [18, 30]: below the threshold
- pKd [19, 30]: below the threshold
- pKd [20, 30]: below the threshold
- pKd [21, 30]: 3.9
- pKd [22, 30]: below the threshold
- pKd [23, 30]: below the threshold
- pKd [24, 30]: below the threshold
- pKd [25, 30]: below the threshold
- pKd [26, 30]: below the threshold
- pKd [27, 30]: below the threshold
- pKd [28, 30]: below the threshold
- pKd [29, 30]: 4.91

B3: RPS6KA1_-1P, Q15418 (peptide)
chain: RRVRKLPSTTL
- pKd [1, 31]: 3.52
- pKd [2, 31]: 3.56
- pKd [3, 31]: 4
- pKd [4, 31]: 3.49
- pKd [5, 31]: 3.46
- pKd [6, 31]: 3.83
- pKd [7, 31]: 4.91
- pKd [8, 31]: 4.7
- pKd [9, 31]: below the threshold
- pKd [10, 31]: 3.36
- pKd [11, 31]: 3.5
- pKd [12, 31]: 3.85
- pKd [13, 31]: 3.36
- pKd [14, 31]: 3.62
- pKd [15, 31]: 3.54
- pKd [16, 31]: below the threshold
- pKd [17, 31]: below the threshold
- pKd [18, 31]: 4.32
- pKd [19, 31]: below the threshold
- pKd [20, 31]: 3.39
- pKd [21, 31]: 4.31
- pKd [22, 31]: below the threshold
- pKd [23, 31]: below the threshold
- pKd [24, 31]: 3.56
- pKd [25, 31]: below the threshold
- pKd [26, 31]: 3.82
- pKd [27, 31]: below the threshold
- pKd [28, 31]: 3.34
- pKd [29, 31]: 4.87
